Experimental data taken from the supplement of paper PMC9170038.

Test system: MS2 coat protein
Experiment: apparent KD of MS2 coat protein; designed switch direction (-1 OFF switch, 1 ON switch): 1; higher = weaker reporter binding
Outline: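 Normalised cluster fluorescence was curve-fitted, and each design's median over clusters is its apparent KD. Before this, SNAP-549-labelled MS2 coat protein was titrated from 0.7 or 1.5 nM, doubling to 3 µM, over RNA switches transcribed on Illumina chips by stalled E. coli RNA polymerase. Titrations had no input, 200 uM small-molecule ligand, or an oligonucleotide input, and steps lasted 0.8–1.5 h (lowest) to 10–20 min (highest).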

[1] = input ligand: microRNA oligo, concentration not stated
[2] = Eterna round: R95, input ligand: FMN 200 uM
[3] = Eterna round: R95, input ligand: microRNA oligo, concentration not stated
[4] = Eterna round: R95, input ligand: none

Sequence | apparent KD of MS2 coat protein [1] | apparent KD of MS2 coat protein (input ligand: FMN 200 uM) | apparent KD of MS2 coat protein (input ligand: none) | apparent KD of MS2 coat protein [2] | apparent KD of MS2 coat protein [3] | apparent KD of MS2 coat protein [4]
UUAAUAAAGUAAGGAUAUACAUGAGGAUCUCUCGUAGAAGGUACUAUACAUGAGGAUCACCCAUGUGCCGGUCCGUAGACUGGA [Mat - Same State NG 1 - JL mod - D7] (Eterna round: R96, puzzle: Same State NG 1) | 124 nM | – | – | – | – | –
UUAAUGAAGUAAGGAUAUACAUGAGGAUCACUCGUAGAAGGUACUAAACAUGAGGAUCACCCAUGUACCGGUCCGUAGACUGGA [JL SSNG1 1.01] (Eterna round: R96, puzzle: Same State NG 1) | 157 nM | 472 nM | 572 nM | – | – | –
UUAAUGAUGAAAGGAUAUACAUGAGGAAUUCUCGUAGAAGGUUCAUGACAUGAGGAUCACCCAUGUAUCGCUCCGUAGAGCGUA [JL SSNG1 1.13] (Eterna round: R96, puzzle: Same State NG 1) | 38.4 nM | 713 nM | 82.6 nM | – | – | –
UUAAUGAUGAUAGGAUAUACAUGAGGAAUCCUCGUAGAAGGAUCAUGACAUGAGGAUCACCCAUGUAACGCUCAGAAGAGCGUA [Mat - Same State NG 1 - JL mod - D42] (Eterna round: R96, puzzle: Same State NG 1) | 37 nM | 205 nM | 78.3 nM | – | – | –
UUAAUGAUGUAAGGAUAUACAUGAGGAUUUCUCGUAGAAGGUACAAGACAUGAGGAUCACCCAUGUAUCGCUCCGUAGAGCGUA [JL SSNG1 1.10] (Eterna round: R96, puzzle: Same State NG 1) | 101 nM | 652 nM | 287 nM | – | – | –
UUAAUUAAUUAAUUAUACAUGAGGAUCACCCAUGUAAGUGAUCAGGAUAUCAGCUCGAAUAGAGCUGAGAAGGGAUCCAUGUAA [SSNG3/14-A1] (Eterna round: R96, puzzle: Same State NG 3) | 72.7 nM | – | – | – | – | –
UUAAUUUACUGAGGAUAUCGUGUCGACUGAGUUGACAUGAGGAUCACCCAUGUGAGAAGUGGUAUCGAGAAGGCAGUUUUCUUA [JR_SSNG2_Sub025] (Eterna round: R96, puzzle: Same State NG 2) | 82 nM | 17.8 nM | 102 nM | – | – | –
UUAGAAUACGCAGGAUAUCGAUGAUUGAUAGUACGAGAAGGGCGAACAUGAGGAUCACCCAUGUAUAUUAAUUUGAGUUUGAAU [JR_SSNG1_Sub076] (Eterna round: R96, puzzle: Same State NG 1) | 120 nM | 69.4 nM | 214 nM | – | – | –
UUAGUCAUGUAAGGAUAUGCAGCCGAAACGGCUGCAGAAGGUACUAUAAUUACAUGAGGAUCACCCAUGUUAUAAAAUAAAUAU [Mat - Same State NG 1 - JL mod - D63] (Eterna round: R96, puzzle: Same State NG 1) | 25.6 nM | 22.9 nM | 48 nM | – | – | –
UUAUAACAUGAGGAUCACCCAUGUCAACAAAGUCGAGGAUAUGGGCAAUUAUUAUUAGAACCAGAAGGCGAAAAUU [Mat - Same State 1 - Mod of UCT - D29] (puzzle: Same State 1) | – | – | – | 52.1 nM | 227 nM | 587 nM
UUAUCUAUCCGAGGAUAUCCAUAUAAUUUACAUGAGGAUCACCCAUGUUAUUGGGAGUUUUUUUAGGAGAAGGCGGAUGUAGAU [JR_SSNG2_Sub052] (Eterna round: R96, puzzle: Same State NG 2) | 79.2 nM | 82.5 nM | 107 nM | – | – | –
UUCCCAUCGGGAGGAUAUGGAACCUUAUUGGUUCUAGAAGGUCCAACAUGAGGAUCACCCAUGUGGGAGUGGUCUAAUGACCAC [SS NG10LRO02] (Eterna round: R96, puzzle: Same State NG 1) | 141 nM | 117 nM | 159 nM | – | – | –
UUCGAGUAGCAAGGAUAUCUUAUUUAGAUUUUAAGAGAAGGUGCUUAUUAGAAACAUGAGGAUCACCCAUGUAUUACUUCUUAU [JR_SSNG1_Sub066] (Eterna round: R96, puzzle: Same State NG 1) | 13.8 nM | 14.1 nM | 20.1 nM | – | – | –
UUCUUACAUGAGGAUCACCCAUGUGUUGUCGUGGGAGGAUAUCCUGGUUCGGUGGCGUUGGGAGAAGGCCUAUGUU [× ×•×ª×• ×ž×“×™× ×” × ×—×ª-19] (puzzle: Same State 1) | – | – | – | 476 nM | 134 nM | 376 nM
UUGAAGAAUUAAGGAUAUCGAGUCGUCAAAUUAAACAUGAGGAUCACCCAUGUGGGUUGCGGUAUCGAGAAGGUAAAUUACUAG [JL JR Sub099 mod 4] (Eterna round: R96, puzzle: Same State NG 2) | 15.2 nM | 11.9 nM | 32.3 nM | – | – | –
UUGAUGAACUGAGGAUAUCGAGUCGUCUCAUUACACAUGAGGAUCACCCAUGUGGGUUGUGGUAUCGAGAAGGCAGAAUACUCA [JR_SSNG2_Sub033] (Eterna round: R96, puzzle: Same State NG 2) | 28.7 nM | 25.1 nM | 32.8 nM | – | – | –
UUGAUGAACUGAGGAUAUCGAGUCGUCUGAUUAUACAUGAGGAUCACCCAUGUGGGUUGUGGUAUCGAGAAGGCAGAUUACUUA [JR_SSNG2_Sub032] (Eterna round: R96, puzzle: Same State NG 2) | 117 nM | 82.8 nM | 260 nM | – | – | –
UUGAUGUACUGAGGAUAUCGUGUCGUCUGAUUUGACAUGAGGAUCACCCAUGUGGGAAGUGGUAUCGAGAAGGCAGUUUUCUUA [JR_SSNG2_Sub028] (Eterna round: R96, puzzle: Same State NG 2) | 351 nM | 151 nM | 745 nM | – | – | –
UUGCGCUGUCGAGAGGAUAUGCGGUGAUGGACAUGAGGAUCACCCAUGUUAGCGAUAGCAUUACGGUAGAAGGCUCUUCAGCUGC [salish99_ss2_r3_095] (puzzle: Same State 2) | – | – | – | 16.2 nM | 21.8 nM | 26.2 nM
UUGCGGGCUUGAGGAUAUUGAGUACAUAUGUUUAACAUGAGGAUCACCCAUGUGGGUUGCGGUAUCGAGAAGGUAACUUCCUGC [salish99_SSNG2_r04_811] (Eterna round: R96, puzzle: Same State NG 2) | 65.3 nM | 100 nM | 91.1 nM | – | – | –
